Measured values: patent US7235648B1, “Yeast cells engineered to produce pheromone system protein surrogates, and uses therefor” (Cadus Technologies, Inc., priority 1993, dated 2007)
Ends that are not written are not given here.

B1: GPA141-Gαi3: first 41 amino acids of GPA1 fused to human Gαi3 (protein)
chain: MGCTVSTQTIGDESDPFLQNKRANDVIEQSLQLEKQRDKNEVKLLLLGAGESGKSTIVKQMKIIHE
B2: GPA41-Gα16: first 41 amino acids of GPA1 fused to Gα16 (protein)
chain: MGCTVSTQTIGDESDPFLQNKRANDVIEQSLQLEKQRDKNELKLLLLGPGESGKSTFIKQMRIIHG
B3: GPA41-Gαob: first 41 amino acids of GPA1 fused to Gαob (protein)
chain: MGCTVSTQTIGDESDPFLQNKRANDVIEQSLQLEKQRDKNEVKLLLLGAGESGKSTIVKQMKIIHEDGFSGEDVKQYKPVVYSNTIQSLAAIVRAMDTLGIEYGDKERKADAKMVCDVVSRMEDTEPFSAELLSAMMRLWGDSGIQECFNRSREYQLNDSAKYYLDSLDRIGAADYQPTEQDILRTRVKTTGIVETHFTFKNLHFRLFDVGGQRSERKKWIHCFEDVTAIIFCVALSGYDQVLHEDETTNRMHESLKLFDSICNNKWFTDTSIILFLNKKDIFEEKIKKSPLTICFPEYTGPSAFTEAVAYIQAQYESKNKSAHKEIYTHVTCATDTNNIQFVFDAVTDVIIAKNLRGCGLY
B4: GPA41-Gαoa: first 41 amino acids of GPA1 fused to Gαoa (protein)
chain: MGCTVSTQTIGDESDPFLQNKRANDVIEQSLQLEKQRDKNEVKLLLLGAGESGKSTIVKQMKIIHEDGFSGEDVKQYKPVVYSNTIQSLAAIVRAMDTLGIEYGDKERKADAKMVCDVVSRMEDTEPFSAELLSAMMRLWGDSGIQECFNRSREYQLNDSAKYYLDSLDRIGAADYQPTEQDILRTRVKTTGIVETHFTFKNLHFRLFDVGGQRSERKKWIHCFEDVTAIIFCVALSGYDQVLHEDETTNRMHESLMLFDSICNNKFFIDTSIILFLNKKDLFGEKIKKSPLTICFPEYTGPNTYEDAAAYIQAQFESKNRSPNKEIYCHMTCATDTNNIQVVFDAVTDIIIANNLRGCGLY

The molecules below were run against T1, STE2 receptor (Saccharomyces cerevisiae, UniProt D6VTK4) (assay: Autocrine MATa yeast (CY588/CY1455) growth on histidine-deficient medium plus aminotriazole, fus1-HIS3 readout). Conditions: CY588 transformed with Cadus 1219; range of aminotriazole concentrations.
T1 construct: endogenous in cells; host or cells: S. cerevisiae MATa CY588 / CY1455
T1 sequence (D6VTK4 1-431): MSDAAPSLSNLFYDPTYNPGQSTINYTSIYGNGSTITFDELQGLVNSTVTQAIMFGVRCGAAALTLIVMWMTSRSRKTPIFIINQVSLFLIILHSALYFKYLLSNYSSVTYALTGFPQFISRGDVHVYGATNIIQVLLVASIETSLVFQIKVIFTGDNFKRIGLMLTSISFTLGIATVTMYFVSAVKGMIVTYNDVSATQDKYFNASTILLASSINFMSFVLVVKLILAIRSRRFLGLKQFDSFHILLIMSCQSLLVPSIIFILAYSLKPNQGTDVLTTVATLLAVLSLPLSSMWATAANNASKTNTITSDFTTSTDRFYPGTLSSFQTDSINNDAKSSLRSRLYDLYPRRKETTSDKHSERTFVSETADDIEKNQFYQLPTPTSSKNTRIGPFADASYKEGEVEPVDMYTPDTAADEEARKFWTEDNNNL
Assay type: cell-based
From the text: A MATa strain designed for the expression of peptides in the context of MFα1 (i.e., using the MFα1 expression vector. Cadus 1215) has been constructed. The genotype of this strain, which we designate CY588, is MATa bar1 far1-1 fus1-HIS3 ste14::TRP1 ura3 trp1 leu2 his3. The bar1 mutation eliminates the strain's ability to produce a protease that degrades α-factor and that may degrade some peptides encoded by the cloned oligonucleotides; the far1 mutation abrogates the arrest of growth which normally follows stimulation of the pheromone response pathway; an integrated FUS1-HIS3 hybrid gene provides a selectable signal of activation of the pheromone response pathway; and, finally, the ste14 mutation lowers background of the FUS1-HIS3 readout. The enzymes responsible for processing of the MFα1 precursor in MATα cells are also expressed in MATa cells (Sprague and Thorner, in The Molecular and Cellular Biology of the Yeast Saccharomyces: Gene Expression, 1992. Cold Spring Harbor Press), therefore, CY588 cells should be able to secrete peptides encoded by oligonucleotides expressed from plasmid Cadus 1215.
Experiments were performed to test: 1. the ability of Cadus 1215 to function as a vector for the expression of peptides encoded by synthetic oligonucleotides; 2. the suitability of the oligonucleotides, as designed, to direct the secretion of peptides through the α-factor secretory pathway; 3. the capacity of CY588 to secrete those peptides; and 4. the ability of CY588 to respond to those peptides that stimulate the pheromone response pathway by growing on selective media. These experi-ments were performed using an oligonucleotide which encodes the 13 amino acid α-factor; i.e., the degenerate sequence (NNN)n in the oligonucleotide cloned into Cadus 1215 (see above) was specified (n=13) to encode this pheromone. CY588 was transformed with the resulting plasmid (Cadus 1219), and transformants selected on uracil-deficient medium were transferred to histidine-deficient medium supplemented with a range of concentrations of aminotriazole (an inhibitor of the HIS3 gene product that serves to reduce background growth). […] CY588 is competent for the secretion of a peptide encoded by the (NNN)n sequence of the synthetic oligonucleotide cloned into and expressed from Cadus 1215; and 2. CY588 can, in an autocrine fashion, respond to a secreted peptide which stimulates its pheromone response pathway, in this case by α-factor binding to STE2. Additional experiments were performed to test the utility of autocrine yeast strains in identifying agonists of the Ste2 receptor from among members of two semi-random α-factor libraries, α-Mid-5 and MFα-8. α-Mid-5 Library
To identity peptide members of the α-Mid-5 library that could act as agonists on the STE2 receptor. CY1455, a high transforming version of CY588, was electroporated to enhance uptake of α-Mid-5 DNA. Transformants were selected on uracil-deficient (-Ura) synthetic complete medium and were transferred to histidine-deficient (-His) synthetic complete medium supplemented with 0.5 mM or 1 mM aminotriazole.
Yeast able to grow on -His+aminotriazole medium include (1) yeast which are dependent on the expression of an α-factor variant agonist and (2) yeast which contain mutations that result in constitutive signalling along the pheromone pathway. […] Thus a recognizable formation (termed a “starburst”) results, consisting of a central colony, growing by virtue of autocrine stimulation of the pheromone pathway, surrounded by satellite colonies, growing by virtue of paracrine stimulation of the pheromone pathway by the agonist peptide as that ptpetide diffuses radially fromn the central, secreting colony.
In order to identify the peptide sequence responsible for this “starburst” phenomenon, yeast were transferred from the center of the “starburst” and streaks were made on -Ura medium to obtain single colonies. […]

**Q.** With “Trp His Trp Leu Gln Leu Lys Pro Gly Gln Pro Met Tyr (chain 1 WHWLQLKPGQPMY; chain 2 WHWLQLKPGQPMY) [α-factor, yeast tridecapeptide mating pheromone, reference compound]” as the molecule, how does the “ability to grow on histidine-deficient media supplemented with aminotriazole (autocrine response, α-factor binding to STE2)” value read?
**A.** Its value is “ability to grow on histidine-deficient media supplemented with aminotriazole”.

Same assay, conditions: CY1455; -His medium with 0.5 mM or 1 mM aminotriazole; starburst phenotype

**Q.** For WHWLSLVPGQPMY [M7], which “agonist activity on the STE2 receptor, α-Mid-5 library” value (“agonist activity on the STE2 receptor” below) is on record?
**A.** Its value is “agonists”.

**Q.** Which “agonist activity on the STE2 receptor” value does the source give for WHWLRLQPGQPMY [M9] here?
**A.** The value was “agonists”.

**Q.** With WHWLSLDAGQPMY [M2] as the molecule, how does the “agonist activity on the STE2 receptor” value read?
**A.** The value was “agonists”.

**Q.** With WHWLRLQSGQPMY [M5] as the molecule, how does the “agonist activity on the STE2 receptor” value read?
**A.** Its value is “agonists”.

**Q.** With WHWLRLSAGQPMY [M6] as the molecule, how does the “agonist activity on the STE2 receptor” value read?
**A.** Its value is “agonists”.

**Q.** For “Trp His Tip Leu Thr Leu MetAla Gly Gin Pro Met Tyr (WHWLTLMAGQPMY) [M3]”, which “agonist activity on the STE2 receptor” value is on record?
**A.** The value was “agonists”.

**Q.** For WHWLQLSAGQPMY [M4], which “agonist activity on the STE2 receptor” value is on record?
**A.** Its value is “agonists”.

**Q.** With WHWLSLYPGQPMY [M8] as the molecule, how does the “agonist activity on the STE2 receptor” value read?
**A.** Its value is “agonists”.

**Q.** Which “agonist activity on the STE2 receptor” value does the source give for WHWLSLSPGQPMY [M1] here?
**A.** The value was “agonists”.

The molecules below were run against T2, yeast Gβγ (Saccharomyces cerevisiae, UniProt P18851+P18852) (assay: Coupling of Gα subunits and hybrids to yeast Gβγ: complementation of gpa1 growth arrest phenotype and fus1-HIS3 transcription). Conditions: not given.
T2 construct: Endogenous Gβγ subunits will be provided by the yeast STE4 and STE18 loci; endogenous in cells; host or cells: S. cerevisiae gpa1 tester strains
T2 sequence (P18851 1-423): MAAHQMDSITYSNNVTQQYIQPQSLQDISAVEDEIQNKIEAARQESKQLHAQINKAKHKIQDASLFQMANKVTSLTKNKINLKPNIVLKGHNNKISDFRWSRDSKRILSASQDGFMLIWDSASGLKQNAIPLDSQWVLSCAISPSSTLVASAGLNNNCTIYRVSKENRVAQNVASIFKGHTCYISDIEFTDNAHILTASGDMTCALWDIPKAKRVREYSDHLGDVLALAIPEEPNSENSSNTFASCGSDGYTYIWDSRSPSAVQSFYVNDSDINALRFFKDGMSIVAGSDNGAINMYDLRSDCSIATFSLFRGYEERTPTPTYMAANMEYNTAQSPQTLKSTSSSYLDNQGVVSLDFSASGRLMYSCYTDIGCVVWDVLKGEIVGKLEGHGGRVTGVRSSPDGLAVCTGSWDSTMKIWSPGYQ
T2 sequence (P18852 1-107 limits assumed): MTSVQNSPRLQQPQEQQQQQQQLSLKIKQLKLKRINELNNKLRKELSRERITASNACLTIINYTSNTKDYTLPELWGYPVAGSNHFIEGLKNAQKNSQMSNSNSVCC
Assay type: cell-based
From the text: We have tested the hypothesis that there are switch region determinants involved in the association of Gα with Gβγ by constructing a series of hybrid Gα proteins encoding portions of GPA1 and GαS in different combinations (FIG. 11).
Preferably, levels of Gα and Gβγ subunits are balanced. For example, heterologous Gα subunits may be expressed from a low copy (CEN ARS) vector containing the endogenous yeast GPA1 promotor and the GPA1 3′ untranslated region. The minimum criterion, applied to a heterologous Gα subunit with respect to its ability to couple functionally to the yeast pheromone pathway, is that it complement a gpa1 genotype when expressed from the GPA1 promoter on low copy plasmids or from an integrated, single copy gene. In the work described in this application, all heterologous Gα subunits have been assayed in two biological systems.

**Q.** “GPA41-S: N-terminal 41 amino acids of GPA1 linked to Gαs sequence 42-394” was tested. Which “functional complementation of the growth arrest phenotype of gpa1 strains” value (shortened to “functional complementation”) did it give?
**A.** Its value is “functionally complement”.

**Q.** Which “functional complementation” value does the source give for B1 here?
**A.** The value was “functionally complement”.

**Q.** How did the “functional complementation” value turn out when B2 was run?
**A.** The value was “functionally complement”.

**Q.** Which “functional complementation” value does the source give for B3 here?
**A.** Its value is “do not”.

**Q.** For B4, which “functional complementation” value is on record?
**A.** The value was “do not”.
